Assay [1] concerns the target dog (Canis lupus) PDL1 (dPDL1) expressed on CHO-S cells (CHO-S-dPDL1) (dog (Canis lupus)). The assay can be described thus: flow cytometry on CHO-S-dPDL1 cells, secondary antibody only; 1 µg/mL.
The target in assay [2] is human PDL1 (hPDL1) expressed on CHO-S cells (CHO-S-hPDL1) (human) (UniProt Q9NZQ7). The assay can be described thus: flow cytometry on CHO-S-hPDL1 cells, secondary antibody only; 1 µg/mL.
Assay [3] has as its target mouse (Mus musculu) PDL1 (mPDL1) expressed on CHO-S cells (CHO-S-mPDL1) (mouse) (UniProt Q9EP73). The assay can be described thus: flow cytometry on CHO-S-mPDL1 cells, secondary antibody only; 1 µg/mL.
For assay [4], the target named is dog (Canis lupus) PDL1 (dPDL1) expressed on CHO-S cells (CHO-S-dPDL1) (dog (Canis lupus)). The assay is described as follows: flow cytometry on CHO-S-dPDL1 cells, secondary antibody only; 0.1 µg/mL.
Assay [5] has as its target monkey (Macaca fascicularis) PDL1 (fasPDL1) expressed on CHO-S cells (CHO-S-fasPDL1) (monkey (Macaca fascicularis)). The assay is described as follows: flow cytometry on CHO-S-fasPDL1 cells, secondary antibody only; 1 µg/mL.
In assay [6] the target is human PDL1 (hPDL1) expressed on CHO-S cells (CHO-S-hPDL1) (human) (UniProt Q9NZQ7). The assay can be described thus: flow cytometry on CHO-S-hPDL1 cells, secondary antibody only; 0.1 µg/mL.
Assay [7] addresses mouse (Mus musculu) PDL1 (mPDL1) expressed on CHO-S cells (CHO-S-mPDL1) (mouse) (UniProt Q9EP73). The assay can be described thus: flow cytometry on CHO-S-mPDL1 cells, secondary antibody only; 0.1 µg/mL.
The target of assay [8] is monkey (Macaca fascicularis) PDL1 (fasPDL1) expressed on CHO-S cells (CHO-S-fasPDL1) (monkey (Macaca fascicularis)). The assay is described as follows: flow cytometry on CHO-S-fasPDL1 cells, secondary antibody only; 0.1 µg/mL.
Assay [9] addresses dog (Canis lupus) PDL1 (dPDL1) expressed on CHO-S cells (CHO-S-dPDL1) (dog (Canis lupus)). The assay can be described thus: flow cytometry on CHO-S-dPDL1 cells; antibody 1 µg/mL.
Assay [10] addresses human PDL1 (hPDL1) expressed on CHO-S cells (CHO-S-hPDL1) (human) (UniProt Q9NZQ7). The assay is described as follows: flow cytometry on CHO-S-hPDL1 cells; antibody 1 µg/mL.
The target in assay [11] is mouse (Mus musculu) PDL1 (mPDL1) expressed on CHO-S cells (CHO-S-mPDL1) (mouse) (UniProt Q9EP73). The assay is described as follows: flow cytometry on CHO-S-mPDL1 cells; antibody 1 µg/mL.
In assay [12] the target is dog (Canis lupus) PDL1 (dPDL1) expressed on CHO-S cells (CHO-S-dPDL1) (dog (Canis lupus)). The assay can be described thus: flow cytometry on CHO-S-dPDL1 cells; antibody 0.1 µg/mL.
Assay [13] has as its target monkey (Macaca fascicularis) PDL1 (fasPDL1) expressed on CHO-S cells (CHO-S-fasPDL1) (monkey (Macaca fascicularis)). The assay is described as follows: flow cytometry on CHO-S-fasPDL1 cells; antibody 1 µg/mL.
Assay [14] deals with human PDL1 (hPDL1) expressed on CHO-S cells (CHO-S-hPDL1) (human) (UniProt Q9NZQ7). The assay is described as follows: flow cytometry on CHO-S-hPDL1 cells; antibody 0.1 µg/mL.
For assay [15], the target named is mouse (Mus musculu) PDL1 (mPDL1) expressed on CHO-S cells (CHO-S-mPDL1) (mouse) (UniProt Q9EP73). The assay can be described thus: flow cytometry on CHO-S-mPDL1 cells; antibody 0.1 µg/mL.
In assay [16] the target is monkey (Macaca fascicularis) PDL1 (fasPDL1) expressed on CHO-S cells (CHO-S-fasPDL1) (monkey (Macaca fascicularis)). The assay is described as follows: flow cytometry on CHO-S-fasPDL1 cells; antibody 0.1 µg/mL.

Here are results for 2 substances from patent publication US20260193356A1.

Chain of monkey (Macaca fascicularis) PDL1 (fasPDL1) expressed on CHO-S cells (CHO-S-fasPDL1) (monkey (Macaca fascicularis)) (Q9NZQ7 other isoform, or with tags, fused parts or gaps limits assumed): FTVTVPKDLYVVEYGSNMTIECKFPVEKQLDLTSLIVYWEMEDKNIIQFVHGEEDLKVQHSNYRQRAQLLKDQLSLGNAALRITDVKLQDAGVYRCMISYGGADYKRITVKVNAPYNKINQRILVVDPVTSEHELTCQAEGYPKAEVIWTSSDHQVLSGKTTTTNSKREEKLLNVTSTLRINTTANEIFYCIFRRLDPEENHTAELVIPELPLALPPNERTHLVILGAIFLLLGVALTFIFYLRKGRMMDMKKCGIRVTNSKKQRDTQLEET
Chain of dog (Canis lupus) PDL1 (dPDL1) expressed on CHO-S cells (CHO-S-dPDL1) (dog (Canis lupus)) (chain, as listed by the source limits assumed, form in doubt): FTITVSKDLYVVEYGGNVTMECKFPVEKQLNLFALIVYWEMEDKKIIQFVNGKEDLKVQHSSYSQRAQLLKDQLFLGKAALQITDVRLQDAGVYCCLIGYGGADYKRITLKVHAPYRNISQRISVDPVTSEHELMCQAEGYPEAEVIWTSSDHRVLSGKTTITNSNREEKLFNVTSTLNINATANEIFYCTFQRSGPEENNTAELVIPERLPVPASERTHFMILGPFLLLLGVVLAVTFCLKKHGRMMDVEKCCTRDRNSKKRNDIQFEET
Chain of human PDL1 (hPDL1) expressed on CHO-S cells (CHO-S-hPDL1) (human) (Q9NZQ7 19-290 limits assumed): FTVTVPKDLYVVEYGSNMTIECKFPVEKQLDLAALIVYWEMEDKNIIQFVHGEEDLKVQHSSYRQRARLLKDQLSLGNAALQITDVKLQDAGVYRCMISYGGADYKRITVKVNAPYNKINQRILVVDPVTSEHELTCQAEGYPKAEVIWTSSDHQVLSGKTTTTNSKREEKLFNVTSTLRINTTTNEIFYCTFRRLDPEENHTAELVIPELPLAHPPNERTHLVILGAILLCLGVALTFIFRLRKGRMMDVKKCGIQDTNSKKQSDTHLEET
Chain of mouse (Mus musculu) PDL1 (mPDL1) expressed on CHO-S cells (CHO-S-mPDL1) (mouse) (Q9EP73 19-290 limits assumed): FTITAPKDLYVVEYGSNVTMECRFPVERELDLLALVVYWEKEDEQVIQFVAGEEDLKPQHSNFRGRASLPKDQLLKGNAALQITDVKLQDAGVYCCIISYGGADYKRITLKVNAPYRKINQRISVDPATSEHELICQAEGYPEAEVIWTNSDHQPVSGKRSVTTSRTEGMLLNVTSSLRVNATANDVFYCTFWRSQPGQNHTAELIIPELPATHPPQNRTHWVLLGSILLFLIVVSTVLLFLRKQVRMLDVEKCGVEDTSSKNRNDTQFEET

Take “secondary antibody anti-hIgG-Fc-Alex Flour 647 (RL1-H) (Jackson ImmunoResearch Laboratories, Inc., 109-606-170)”: the Percentage of Positive Cells (%) is 1.76% in assay [1]; 1.13% in assay [2]; 2.31% in assay [3]; 1.68% in assay [4]; 2.34% in assay [5]; 1.48% in [6]. Besides, the Percentage of Positive Cells (%) was found to be 1.04% in [7] and 1.38% in [8].

In the case of “ISO (isotype control, antibody with the same IgG1 subtype but targeting an unrelated target)”, the Percentage of Positive Cells (%) turned out to be 4.28% in assay [9]; 3.05% in [10]; 3.52% in [11]; 14.2% in assay [12]; 2.53% in assay [13]; 2.01% in assay [14]. For the same substance, the results for the Percentage of Positive Cells (%) in [15] and in assay [16] were 2.26% and 1.87%, respectively.
